Results reported in patent US8933202B2, “AXL antibodies” (U3 Pharma GmbH, priority 2007, dated 2015).

Tests used:
p42/p44 MAP-Kinase = p42/p44 MAP-Kinase phosphorylation ELISA; assay type: cell-based, human; conditions: 10 μg/ml antibody, 400 ng/ml Gas6; CaSki cervical cancer cells
Protocol: Next, ELISA experiments were performed in order to investigate whether the rat anti-AXL antibodies of the invention are able to block ligand Gas6-mediated activation of p42/p44 MAP-Kinase. Gas6-mediated p42/p44 MAP-Kinase activation was detected by increased protein (Thr202/Tyr204) phosphorylation. In brief, on the first day, 2×10^4 cells per well were seeded in flat-bottom 96 well plates. The next day, normal growth medium was replaced by serum-free medium to starve cells for 36 h. […] Medium was flicked out and cells were fixed with 4% formaldehyde in PBS (pH 7.5) for 30 min at room temperature. Formaldehyde solution was removed and cells were washed twice with wash buffer (PBS, 0.1% Tween 20). Cells were quenched with 1% H2O2, 0.1% NaN3 in wash buffer and incubated for 20 min at room temperature. Afterwards, the quenching solution was removed, and cells were washed twice with wash buffer and blocked with PBS, 0.5% BSA for 4 h at 4° C. Anti-phospho-p42/p44 MAP Kinase (Thr202/Tyr204) primary antibody (polyclonal rabbit; Cell Signaling #9101) diluted 1:500 in PBS, 0.5% BSA, 5 mM EDTA was added over night at 4° C. On day 4, the antibody solution was removed and the plate was washed 3× with wash buffer. […] Tetramethylbenzidine (TMB, Calbiochem) was added and monitored at 620 nm.

Akt-Kinase = Akt-Kinase (Ser473) phosphorylation ELISA; assay type: cell-based; conditions: 400 ng/ml Gas6
Protocol: Furthermore, ELISA experiments were performed in order to investigate whether the rat anti-AXL antibodies of the invention are able to block ligand Gas6-mediated activation of Akt-Kinase. Gas6-mediated Akt-Kinase activation was detected by increased protein (Ser473) phosphorylation. In brief, on day 1. 2×10^4 cells per well were seeded in flat-bottom 96 well plates. The next day, normal growth medium was replaced by serum-reduced (DMEM, 0.5% FCS for NIH3T3-AXL cl.7 fibroblasts) or serum-free (for cancer cell lines) medium to starve cells for 36 h. […] Medium was flicked out and cells were fixed with 4% formaldehyde in PBS (pH 7.5) for 30 min at room temperature. Formaldehyde solution was removed and cells were washed twice with wash buffer (PBS, 0.1% Tween 20). […] Tetramethylbenzidine (TMB, Calbiochem) was added and monitored at 620 nm.
In order to investigate whether the rat anti-AXL antibodies of the invention and the corresponding chimeric anti-AXL antibodies of the invention were able to block ligand Gas6-mediated activation of the Akt-Kinase in NIH3T3-AXL cl.7 fibroblasts to similar extent, ELISA experiments were performed. Antibody-mediated Akt-Kinase inhibition was detected by decreased protein (Ser473) phosphorylation. […] Tetramethylbenzidine (TMB, Calbiochem) was added and monitored at 620 nm.

C-8161 melanoma cells = experiment: Soft agar colony formation assay, combination with cisplatin; assay type: cell-based, human
Protocol: Soft agar assays were conducted in order to investigate the ability of anti-Axl antibodies of the invention to inhibit anchorage-independent cell growth either alone or in combination with chemotherapeutic agents. The soft agar colony formation assay is a standard in vitro assay to test for transformed cells, as only transformed cells are able to grow in soft agar.
In brief, 750 C-8161 melanoma cells either remained untreated or were pre-incubated with the antagonistic rat anti-Axl antibody 11B7 at 15 μg/ml in IMDM medium (Gibco) for 30 min at 37° C. Subsequently, cells were combined with Difco noble agar solution resulting in 50 μl of top agar cell suspension at concentrations of Agar, FCS, and 11B7 of 0.35%, 0.2%, and 7.5 μg/ml, respectively. This cell suspension was plated on top of 50 μl of a 0.7% agarose bottom layer containing 20% FCS, and was finally covered with another 50 μl of a feeding layer solution that contains 0.2% FCS as well as cisplatin in according concentrations. In the whole of 150 μl per sample, the final concentrations of 11B7 and cisplatin were 2.5 μg/ml and 1.5 μM, 1.0 μM, 0.75 μM, 0.5 μM, or 0.25 μM, respectively. Colonies were allowed to form for 5 days and were then stained with 50 μl MTT (Sigma, 1 mg/ml in PBS) for 3 hours at 37° C. Using a Scanalyzer HTS camera system in conjunction with the HTS Bonit colony formation software (Lemnatec, Wuerselen), the effect of the antagonistic rat anti-Axl antibody 11B7 in the absence or presence of cisplatin were analyzed in triplicates.

B1: 11B7: antagonistic rat anti-AXL monoclonal antibody, rat IgG1 (antibody, V domains shown)
VL: DIQMTQAPSSLPASLGDRVTITCRASQDIGNYLRWFQQKPGKSPRLMISGATNLAAGVPSRFSGSRSGSDYSLTISSLESEDMADYYCLQSKESPWTFGGGTKLELK
VH: EVQLQESGPGLVKPSQSLSLTCSVTGYSITSNYWGWIRKFPGDKMEWMGYITYSGSTSYNPSLKSRISITRDTSKNQFFLQLNSVTSEDTATYYCAITTFYYWGQGVMVTVSS
ligand-mediated p42/p44 MAP-Kinase activation (phosphorylation) (p42/p44 MAP-Kinase): able to reduce ligand-mediated p42/p44 MAP-Kinase activation
ligand-mediated Akt-Kinase activation, rat versus chimeric antibody (Akt-Kinase; 50 ng/ml to 1 μg/ml (11B7, ch11B7) or to 10 μg/ml (11D5, ch11D5), NIH3T3-AXL cl.7): able to inhibit ligand-mediated Akt-Kinase activation to similar extent
ligand-mediated Akt-Kinase activation (phosphorylation) (Akt-Kinase; 10 μg/ml antibody, NIH3T3-AXL cl.7 fibroblasts and CaLa-1 lung cancer cells): able to block or reduce ligand-mediated Akt-Kinase activation
soft agar colony growth, combination with cisplatin (C-8161 melanoma cells; 2.5 μg/ml 11B7 + 0.25 to 1.5 μM cisplatin, 5 days): significantly potentiated inhibitory effect of cisplatin
inhibitory effect on soft agar colony growth, antibody alone (C-8161 melanoma cells; 2.5 μg/ml 11B7, 5 days, overall area of colonies): ~30%
